From the nanobody polyreactivity screen of Harvey et al. (2022)

Experiment: yeast display, Sf9 membrane polyspecificity reagent, FACS + sequencing; frameworks hold sequencing errors
In short: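 Nanobodies from a synthetic yeast display library (Saccharomyces cerevisiae BJ5465), induced 36–48 hours with galactose, were stained 1 hour at 4 °C with 10% biotinylated, detergent-solubilized Sf9 membrane reagent, enriched on streptavidin microbeads, then FACS-sorted. Anti-HA (expression) and streptavidin (reagent binding) fluorescence set low and high (top ~1%) gates. Polyreactivity labels come from the gate of origin. Genes were colony-PCR amplified, MiSeq 2 × 250 sequenced and filtered by CDR length.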

For “QVQLVESGGGLVQAGGSLRLSCAASGGIFDSYAMGWYRQAPGKERELVAAISWSGDRTYYADSVKGRFTISRDNAKNTVYLQMISLKPEDTAVYYCAADDGYTYGEGYYWGQGTQVTVSS”, which “polyreactivity (PSR sort gate)” value is on record?
The value was “high polyreactivity”.

For “QVQLVESGGGLVQAGGSLRLSCAASGGIFFPNAMGWYRQAPGKERELVAAISWSAGSTYYADSVKGRFTISRDHAKNTVDLQMNSLKPEDTAVYYCPAAGSNYTVWYGYYYWGQGTQVTVSS”, which “polyreactivity (PSR sort gate)” value is on record?
The value was “low polyreactivity”.

Which “polyreactivity (PSR sort gate)” value does the source give for “QVQLVESGGGLVQAGGSLRLSCAASGGIFFSNVMGWYRQAPGKERELVAAITSGDNTNYADSVKGRFTISRDNAKNTVYLQMNSLKPEDTAVYYCNADVASEYSDKYDYWGQGTQVTVSS” here?
Its value is “low polyreactivity”.

With “QVQLVESGGGLVQAGGSLRLSCAASGGIFFSYAMGWYRQAPGKERELVAAIRTNGGTTYYADSVKGRFTISRDNAKNTVYLQMNSLKPEDTAVYYCAAKQFSVTLSNYWGQGTQVTVSS” as the sequence, how does the “polyreactivity (PSR sort gate)” value read?
Its value is “low polyreactivity”.

With “QVQLVESGGGLVQAGGSLRLSCAASGGIFGGYAMGWYRQAPGKDREFVAAISRRGGSTYYADSVKGRFTISRDNAKNTVYLQMNSLKPEDTAVYYCAADRYPSLYDYWGQGTQVTVSS” as the sequence, how does the “polyreactivity (PSR sort gate)” value read?
Its value is “high polyreactivity”.

For “QVQLVESGGGLVQAGGSLRLSCAASGGIFGGYAMGWYRQAPRKERELVATITSGTSTNYADSVKGRFTISRDNAKNTVYLQMNSLKPEDTAVYYCNAGGVYPRFTFLEQGYEMEYWGQGTQVTVSS”, which “polyreactivity (PSR sort gate)” value is on record?
The value was “low polyreactivity”.

For “QVQLVESGGGLVQAGGSLRLSCAASGGIFGHYGMGWYRQAPGQERELVASISWNGGSTYYADSVKGRFTSSRDNAKNTVYLQMNSLKPEDTAVYYCAARAIWLRYVGYTYYYWGQGTQVTVSS”, which “polyreactivity (PSR sort gate)” value is on record?
The value was “high polyreactivity”.

For “QVQLVESGGGLVQAGGSLRLSCAASGGIFGINAMGWYRQAPWKERELVSAINLSGGRTYYADSVKGRFTISRDNSKNTVYLHMNSLKPEDTAVYYCAAYYGYSLYGHYEYWGQGTQVTVSS”, which “polyreactivity (PSR sort gate)” value is on record?
Its value is “high polyreactivity”.

For “QVQLVESGGGLVQAGGSLRLSCAASGGIFGKYAMGWYRQAPGKERELVAAITSSGGSTFYADSVKGRFTNSRDNAKNTVYLQMNSLKPEDTAVYYCAARFSSYVRRYYYWGQGTQVTVSS”, which “polyreactivity (PSR sort gate)” value is on record?
The value was “high polyreactivity”.

For “QVQLVESGGGLVQAGGSLRLSCAASGGIFGLYTMGWYRQAPGKERELVAAISKTGGSTYYADSVKGRFTISRDNAKNTVYLQMNSLNPEDTAVYYCAADGPYDDYEYWGQGTQVTVSS”, which “polyreactivity (PSR sort gate)” value is on record?
The value was “high polyreactivity”.

For “QVQLVESGGGLVQAGGSLRLSCAASGGIFGRYAMGWYRQAPGKERELVAAISSRGGSTYYADSVKGRFTISRDNAKNTVYLQMNSLKPEDTAVYYCNALWVSYYTFRMDYWGQGTQVTVSS”, which “polyreactivity (PSR sort gate)” value is on record?
The value was “high polyreactivity”.

With “QVQLVESGGGLVQAGGSLRLSCAASGGIFGYYTMGWYRQAPGKERELVAVITRSGGSTYYADSVKGRFTISRDNAKNTVYLQMNSLKPEDTAVYYCASGWRGGRYRYFAYDYWGQGTQVTVSS” as the sequence, how does the “polyreactivity (PSR sort gate)” value read?
Its value is “high polyreactivity”.

With “QVQLVESGGGLVQAGGSLRLSCAASGGIFGYYTRGWYRQAPGKEREVVAAISRRGGSTYYADSVKGRFTISRDNAKNTVYLQMNSLKPEDTAVYYCAAGLSSGGTHYDYWGQGTQVTVSS” as the sequence, how does the “polyreactivity (PSR sort gate)” value read?
Its value is “high polyreactivity”.

Which “polyreactivity (PSR sort gate)” value does the source give for “QVQLVESGGGLVQAGGSLRLSCAASGGIFIFYAMGWYRQAPGKERELVAAISNVSSTNYADSVKGRFTISRDNAKNTVYLQMNSLKPEDTAVYYCNAVGVPSEYYSWGQGTQVTVSS” here?
Its value is “low polyreactivity”.

For “QVQLVESGGGLVQAGGSLRLSCAASGGIFIRNAMGWYRQAPGKERELVATISNAGSTYADSVKGRFTISRDNAKNTVYLQMNSLKPEDTAVYYCNRDDWTYPVSQGLQEYDYWGQGTQVTVSS”, which “polyreactivity (PSR sort gate)” value is on record?
Its value is “low polyreactivity”.

Which “polyreactivity (PSR sort gate)” value does the source give for “QVQLVESGGGLVQAGGSLRLSCAASGGIFKYNAMGWYRQAPGKERELVAAIDTSGGSTYYADSVKGRFTISRDKAKNTVYLQMNSLKPDDTAVYYCAAELCLAQYYYWGQGTQVTVTS” here?
The value was “low polyreactivity”.

For “QVQLVESGGGLVQAGGSLRLSCAASGGIFKYNAMGWYRQAPGKERELVAAIDTSGGSTYYADSVKGRFTISRDNAKNTVYLQMNSLKPEDTAVYYCAAELGLAQYYYWGQGTQVTVSS”, which “polyreactivity (PSR sort gate)” value is on record?
Its value is “low polyreactivity”.

For “QVQLVESGGGLVQAGGSLRLSCAASGGIFKYNAMGWYRQAPGKERELVAAIDTSGGSTYYADSVKGRFTISRDNAKNTVYLQMNSLKPEDTAVYYCARRWSYQRPSFEYDSWGQGTQVTVSS”, which “polyreactivity (PSR sort gate)” value is on record?
The value was “low polyreactivity”.

With “QVQLVESGGGLVQAGGSLRLSCAASGGIFKYNAMGWYRTAPGKERELVAAIRSSGSTNYADSVKGRFTISRDNAKNTVYLQMNSLKPEETAVYYCNVAYGLQPYDYWGQGTQVNVSS” as the sequence, how does the “polyreactivity (PSR sort gate)” value read?
Its value is “high polyreactivity”.

With “QVQLVESGGGLVQAGGSLRLSCAASGGIFLFNAMGWYRQAPGKERELVAAITDGGSTYYADSVKGRFTISRDNAKNTVYLQMNSLKPEDTAVYYCNAEGVSLYGYDSGVDSGEDYWGQGTQVTVSS” as the sequence, how does the “polyreactivity (PSR sort gate)” value read?
The value was “low polyreactivity”.

For “QVQLVESGGGLVQAGGSLRLSCAASGGIFLGNAMGWYRQAPGKERELVAAISWSGGSTYYADSVKGRFTISRDNAKNTVYLQMNSLKPEDTAVYYCAAAWNRGKYNYYYWGQGTQVTVSS”, which “polyreactivity (PSR sort gate)” value is on record?
Its value is “high polyreactivity”.

With “QVQLVESGGGLVQAGGSLRLSCAASGGIFLSNAMGWSRQAPGKERELVAAISRSGGSTYYADSVKGRFTISRDNAKNTVYLQMNSLKPEDTAVYYCAARWTRNYGMNYWGQGTKVTVSS” as the sequence, how does the “polyreactivity (PSR sort gate)” value read?
Its value is “high polyreactivity”.

For “QVQLVESGGGLVQAGGSLRLSCAASGGIFLVYAMGWYRQAPGKERELVAAITPGGSTYYADSVKGRFTISRDNAKNTVYLQMNSLKPEDTAVYYCAKALYRREYSSGGYYRFDYWGQGTQVTVSS”, which “polyreactivity (PSR sort gate)” value is on record?
The value was “high polyreactivity”.

Which “polyreactivity (PSR sort gate)” value does the source give for “QVQLVESGGGLVQAGGSLRLSCAASGGIFPAYAMGWYRQSPGKERELVASISANGGRTYYADSVKGRFTISRDNAKNSVYLQLNSLKPEDTAVYYCNASYRSGSWRFYYWGQGTQVTVSS” here?
Its value is “high polyreactivity”.

With “QVQLVESGGGLVQAGGSLRLSCAASGGIFPQYSMGWYTQAPGKERELVSAISRRGGRTYYADSVKGRFTISRDTAKNTVYLQMNSLKPEDTAVYYCAKRALTYTRYRVIYDYWGQGTQVTVSS” as the sequence, how does the “polyreactivity (PSR sort gate)” value read?
Its value is “high polyreactivity”.

Which “polyreactivity (PSR sort gate)” value does the source give for “QVQLVESGGGLVQAGGSLRLSCAASGGIFPYYVMGWYRQAPGKERELVAAINSGGTTYYADSVKGRFTISRDNAKNTVYLQMNSLKPEDTAVYYCAAYYAGFGYNYWGQGTQVTVSS” here?
Its value is “low polyreactivity”.

With “QVQLVESGGGLVQAGGSLRLSCAASGGIFQGYAMGWYRQAAGKERELVAAITRGGSTNYADSVKGRFTISRDNAKNTVYLQMNSLKPEDTAVYYFAARPRWFKGYDYWGQGTQVTVSS” as the sequence, how does the “polyreactivity (PSR sort gate)” value read?
The value was “high polyreactivity”.

For “QVQLVESGGGLVQAGGSLRLSCAASGGIFRANTMGWYRQAPGKERELVAVISWSGARTYYADSVKGRFTISRDNAKNTVYLQMNSLKPEDTAVYYCNARVPKLGSMYYWGHGTQVTVSS”, which “polyreactivity (PSR sort gate)” value is on record?
The value was “high polyreactivity”.

Which “polyreactivity (PSR sort gate)” value does the source give for “QVQLVESGGGLVQAGGSLRLSCAASGGIFRGYAMGWYRQAPGKERELVAAISSRDGRTYYADSVKGRFTISRDNEKNTVYLQMNSLKPEDTAVYYCAASSFNNGHRYDYWGQGTQVTVSS” here?
The value was “high polyreactivity”.

For “QVQLVESGGGLVQAGGSLRLSCAASGGIFRRYAMVWYRQAPGKERELVAGISYSGGSTYYADSVKGRFTISRDNAKNTVYLQMNSLKPEDTAVDYCATVGYVWYRSVNVWSPMDYWGQGTQVTVSS”, which “polyreactivity (PSR sort gate)” value is on record?
Its value is “high polyreactivity”.

With “QVQLVESGGGLVQAGGSLRLSCAASGGIFRSYAMGWYRQAPGKETELVAAISWSTVSTYADSVKGRFTISRDNAKNTVYLQMYSLKPEDSAVYYCAASPFEYCYYYYGLYKEYYYWGQGNQVTVSS” as the sequence, how does the “polyreactivity (PSR sort gate)” value read?
The value was “low polyreactivity”.

Which “polyreactivity (PSR sort gate)” value does the source give for “QVQLVESGGGLVQAGGSLRLSCAASGGIFRSYTMGWYRQAPGKERELVAAISSGASTSYADSVKGRFTISRDNAKNTVYLQMNSLKPEHTAVYYCAVGVLYAGYFYRYRYYYWGQGTQVTVSS” here?
The value was “high polyreactivity”.

With “QVQLVESGGGLVQAGGSLRLSCAASGGIFRWYVMGWYRPEPGKERDFVAAISQSGGSTYYADSVKGRFTISRDNAKNTVYLQMNCLKPEDTAVYYCAAGFYHYRSFNFDYWGQGTQVTVSS” as the sequence, how does the “polyreactivity (PSR sort gate)” value read?
Its value is “high polyreactivity”.

For “QVQLVESGGGLVQAGGSLRLSCAASGGIFSAYDMAWYRQAPGKERELVAAINSGGSTNYADSVKGRFTISRDNAKNTVYLQMNSLKPEDTAVYYCAAAKVSWFGLKYYYWGQGTQVTVSS”, which “polyreactivity (PSR sort gate)” value is on record?
Its value is “high polyreactivity”.

With “QVQLVESGGGLVQAGGSLRLSCAASGGIFSENAMGWYRQAPGKERELVAVITTSGGSTYYADSVKGRFTISRDNAKNTVYLQMNSLKPEDTAVYYCAADVLSWEYDYWGQGTQVTVSS” as the sequence, how does the “polyreactivity (PSR sort gate)” value read?
The value was “low polyreactivity”.

For “QVQLVESGGGLVQAGGSLRLSCAASGGIFSPNAMGWYRQAHGKERELVASISSNGGSTNYADSVKGRFTISRDNAKNTVYLQMNSLKPEDTAVYYCAGLQKRRSYWRPFYWGQGTQVTVSS”, which “polyreactivity (PSR sort gate)” value is on record?
The value was “low polyreactivity”.

Which “polyreactivity (PSR sort gate)” value does the source give for “QVQLVESGGGLVQAGGSLRLSCAASGGIFSPNAMGWYRQAPGKERELVAAISSNGGSTNYADSVKGRFTISRDNAKNTVYLQMNSLKPEDTAVYYCAGLQKRRSYWRPFYWGQGTQVTVSS” here?
Its value is “low polyreactivity”.

With “QVQLVESGGGLVQAGGSLRLSCAASGGIFSSYAMGWYRQAPGKERELVATITSRGGSTYYADSVKGRFTISRDNAKNTVYLQMNSLKPEDTAVYYCAKEYRYYRRRYDYWGQGTQVTVSS” as the sequence, how does the “polyreactivity (PSR sort gate)” value read?
Its value is “high polyreactivity”.

For “QVQLVESGGGLVQAGGSLRLSCAASGGIFSTYTMGWYRQAPGKERELVAAISQSGGTTYYADSVKGRFTISRDNAKNTVYLQMNSLKPEDTAVYYCAAEPTQADYDYWGQGTQVTVSS”, which “polyreactivity (PSR sort gate)” value is on record?
The value was “low polyreactivity”.

With “QVQLVESGGGLVQAGGSLRLSCAASGGIFVQYTMGWYRQAPGKERELVAAISTGGSTYYADSVKGRFTISRDNAKNTVYLQMNSLKPEDTAVYYCAVVYRSQYSRYTSQWKEYYWGQGTQVTVSS” as the sequence, how does the “polyreactivity (PSR sort gate)” value read?
Its value is “low polyreactivity”.

For “QVQLVESGGGLVQAGGSLRLSCAASGGIFVRYAMGVYRQAPGKERELVAAITGTGSSTYYADSVKGRFTISRDNAKNTVYLQMNSLKPEDTAVYYCAAARYSNYGYWGQGTQVTVSS”, which “polyreactivity (PSR sort gate)” value is on record?
The value was “high polyreactivity”.
